Paper PMC4598101, “Growth of Chitinophaga pinensis on Plant Cell Wall Glycans and Characterisation of a Glycoside Hydrolase Family 27 β-L-Arabinopyranosidase Implicated in Arabinogalactan Utilisation” (PLoS ONE, 2015)
Where a chain is given by its changes, count along the chain named. Names may count otherwise.

B1: CpArap27 (Cpin_5740 gene product) (Chitinophaga pinensis DSM 2588) (protein)
chain: AQQKKDFHSWAPTPPMGWNSWDCYGPTVTEAEVKANADYMASHLKSSGWQYIIVDIRWYVANDKSHGYNETDPAYNIDAYGRFQPAVNRFPSAANGKGFKPLADYIHSKGLKFGIHIMRGVPVVAVNKKLPVKGTNVTAADIYSKQDQCKWLHDMYTIVPDKTGAQEYYNSLFDMYAAWGLDFVKVDDLSAPIYFTEEIEMIRKAITRTGRKILLSTSPGETPIAQGAHVQQHANMWRTVDDFWDNWPHLKDHFEVFDRWNKWRTTGAWPDGDMLPLGHIGIRAERGQPRMTSFTKDEQYTLMTLWTIFRSPLMFGGNLPDNDPFTLSLLTNKQVLQVLNNSSNNRPVFNDKDKAAWTADMPGKSAKYLAVFNKADKDAAAVNVDLSEIGIKGSCTITDLWTGKVLGKFTGSFAPQINPHGAGLYKVTP
notes: ~48 kDa; monomer by SEC
B2: CpArap27 (Cpin_5740 gene product) (Chitinophaga pinensis DSM 2588; I73E) (protein)
chain: B1 chain with I56E
notes: ~48 kDa; monomer by SEC
B3: CpArap27 (Cpin_5740 gene product) (Chitinophaga pinensis DSM 2588; I73D) (protein)
chain: B1 chain with I56D
notes: ~48 kDa; monomer by SEC
B4: CpArap27 (Cpin_5740 gene product) (Chitinophaga pinensis DSM 2588; I73C) (protein)
chain: B1 chain with I56C
notes: ~48 kDa; monomer by SEC

Experiments:
[1] = substrate: O=[N+]([O-])c1ccc(O[C@H]2OC[C@H](O)[C@H](O)[C@H]2O)cc1; assay: continuous pNP release, spectrophotometer; format: biochemical, Chitinophaga pinensis; settings: 50 mM sodium citrate pH 5.0, 30 °C
Source text: (§1) continuous pNP release, spectrophotometer on CpArap27 (Cpin_5740 gene product)

[2] = substrate: O=[N+]([O-])c1ccc(O[C@H]2O[C@H](CO)[C@H](O)[C@H](O)[C@H]2O)cc1; assay: continuous pNP release, spectrophotometer; format: biochemical, Chitinophaga pinensis; settings: 50 mM sodium citrate pH 5.0, 30 °C
Source text: as §1

Protein | Km [1] [mM] | kcat [1] [s⁻¹] | kcat/Km [1] [M⁻¹ s⁻¹] | Km [2] [mM] | kcat [2] [s⁻¹] | kcat/Km [2] [M⁻¹ s⁻¹]
B1 | 12.9 ± 3.27 | 32.3 ± 3.58 | 2500 |  |  | 
B2 | 6.56 ± 3.39 | 0.528 ± 0.115 | 80.5 | 35.6 ± 15.2 | 0.105 ± 0.0518 | 2.95
B3 | 8.63 ± 2.14 | 0.00718 ± 0.000775 | 0.832 | 35.3 ± 11.9 |  | 0.00585
B4 | 21.5 ± 10.4 | 0.403 ± 0.119 | 18.8 |  |  | 
